# Measured values as given in the nanobody polyreactivity screen of Harvey et al. (2022).
# Experiment: yeast display, Sf9 membrane polyspecificity reagent, FACS + sequencing; frameworks hold sequencing errors
# How it was run: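 In a synthetic yeast display library (Saccharomyces cerevisiae BJ5465), nanobody expression was induced with galactose for 36–48 hours. FACS gates were set low and high (top ~1%) using anti-HA fluorescence for expression and streptavidin fluorescence for binding of the Sf9 membrane reagent. Each polyreactivity label is drawn from the gate of origin.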
row,Sequence,polyreactivity (PSR sort gate)
1,QVQLVESGGGLVQAGGSLRLSCAASGSIFSGYAMGWYRQAPGKERELVAAISRGGSTNYADSVKGRFTISRDNAKNTVYLQMNSLKPEDTAVYYCATTPTKYHYAFGYWGQGSQVTVSS,low polyreactivity
2,QVQLVESGGGLVQAGGSLRLSCAASGFIFCTNAMGWYRQAPGKERELVAGISRTGGRTYYADSVKGRFTISRDNAKNTVYLQMNSLKPEDTAVYYCAAVARRHKVYEYDYWGQGTQVTVSS,high polyreactivity
3,QVQLVESGGGLVQAGGSLRLSCSASGRILRQYAMGWSRQAPGKERELVAAITSSGGSTYYADSVKGRFTISRDNAKNTVYLQMNSLKPEDTAVYYCNARLRGAKYDYLGQGTQVTVSS,high polyreactivity
4,QVQLVESGGGLVQAGGSLRLSCAASGLTFTTYAMGWYIPAPGKDRELVSAINYRGTSSYYADSVKGRFTISRDNAKKTVYLQINSLKPEDTAVYYCNARQTRSSRINYAEGIYNFWGQGTQVTVSS,high polyreactivity
5,QVQLEESGGGLVQAGGSLRLSCAASGSTFRAYAMGWYRQAPGKERELVAAITSTTDTYYADSVKGRFTISRDNAKNTVYLQMNSLKPEDTAVYYCASVWVWTYDYWGQGTQVTVSS,low polyreactivity
6,QVQLVESGGCIVQAGGSLRLSCADSGSIFDWYAMVWYRQAPGKERELVAAINEGGGSTYYADSVKGRFTISRDNANNTVYLQMNSLKPEDHAVYYCAAGDYYLQDNYWGQGTQVTVSS,low polyreactivity
7,QVQLVESGGGLVQAGGSLRLSCAASGFTFYSYAMGWYRQAPGKERELVAAITKRGGSTSYADSVKGRFTISRDNAKNTVYLQMNSLKPEDTAVYYCNRRATKAQYGDEVDYWGQGTQVTVSS,high polyreactivity
8,QVQLVESGGGLVQAGGSLRLSCAASGRTFKIYAMGWYRQAPGKEREFVASINWSGGITYYADSVKGRFTISRDNAKNTVYLQMNSLKPEDTAVYYCAARIDSSRIGKRFYYWGQGTQVTVSS,high polyreactivity
9,QVQLVESGGGLVQAGGSLRLSCAASGSTFRYYTMGWYRQAPGKERELVAAITRRSASTYYADSVKGRFTISRDNAKNTVYLQMNSLKPEDTAVYYCAVRTNGPFEYWGQGTQVTVSS,high polyreactivity
10,QVHLVESGGGLVQAGGSLRLSCAASGRIYKYNAMGWYRQAPGKERELVAAISSGGSTNYADSVKGRFTISRDNAKNTVYLQMNSLKPEDTAVYYCAADGTRVSSFHYLVWLGYWGQGTQVTVSS,low polyreactivity
11,QVQLVESGGGLVQAGGSLRLSCAASGSIFTVYTMGWYRQAPGKVRELVAAINSRGGTTYYADSVKGRFTISRDNAKNTLYLQMNSLKPEDTAVYYCAAKQRPKSYGPGHYYWGQGTQVTVSS,high polyreactivity
12,QVQLVESGGGLVQAGGSLRLSCAASGSTFYTYAMGWYRQATGKERELVAAISWSGGSTYYADSVKGRFTISRDNAKNTVYLQMNSLKPEDPAVYYCAADRPYAGRYWKGYHSALYDYWGQGSQVTVSS,low polyreactivity
13,QVQLVESGGGLVQAGGSLRLSCAASGSTFYLNAMGWYRQAPGKERELVAAISSSGGSKYYADSVKGRFTISRDNAKNTVYLQMNSLKPEDTAVYYCACSCFPAVSVYGGDYWGQGTQVTVSS,low polyreactivity
14,QVQLGESGGGLVQAGGSLRLCCAASGRIFVRYTRGWYRQAPGKERELVAAIDQRGGSTYYADSVKGRFTISRDNANNTVSLQLNSLKPEDTAVYYCARVASRTRPGYGYWGQGTQVTVSS,low polyreactivity
15,QVQLVESGGGLVQAGGSLRLSCAASGSTFGGYAMGWYRQAPGKERELVATINYSDGSTYYADSVKGRFTISRDNAKNTVYLQMNSLKPEDTAVYYCAKRFGSGWAWFGYWGQGTQVTVSS,low polyreactivity
16,QVQLVESGGGLVQAGGSLRLSCAASGSTFWTYTMGWYRQAPGKERELVAVISSTGGDTYYADSVKGRFTISRDNAKNTVYLQMNSLKPEDTAVYYCAARIRRWYAGYGGYYWGQGTQVTVSS,high polyreactivity

row,Sequence,polyreactivity (PSR sort gate)
1,QVQLVESGGGLVQAGGSLRLSCAASGSTFVPYAMGWYRPAPGKERELVAGITFSGGSTYYADSVKGRFTISRDNAKNTVYLQMNSLKPEDTAVYYCAAGGWRGHYYWGQGTQVTVSS,high polyreactivity
2,QVQLVESGGGLVQAGGSLRLSCAASGSTFDSNGMGWYRQAPGKERELVADITYSDGRTYADSVKGRFTISRDNAKNTVYLQMNSLKPEDTAVYYCAVSDSVYAGFTSYDYWGQGTQVTVSS,low polyreactivity
3,QVQLVESGGGLVKAGGSLRLICAASGFTFRAYAMGWYRQAPGTERELVAAINRRGGRTYYADSVKGRFTISRDNAKNTVYLQMNSLKPEDTAVYYCAAVKSGPSKGVGPPATAYDYWGQGTQVTVSS,high polyreactivity
4,QVQLVESGGGLVQGGGSLRLSCAASGFIFSRYAMGWYRPAPGKERELVAAISRTGSTNYADSVKGRFTISRDNAKNTVYLQMNSLNPEDTAVYYCNARYITFNGYGYGYWEQGTQVTVSS,high polyreactivity
5,QVQLVESGGGLVQAGGSLRLSCAASGRTFSYYTMGWSRQAPGKERELVAAISWSGGNTYYADSVKGRFTISRDNAKNTVYLQMNSLKPEDTAVYYCAARSVYGSYSGYDYWGQGTQVTVSS,high polyreactivity
6,QVQLVESGGGLVQAGGSLRLSCAASGSTFDWYAMGWYRQAPGKEREFVAAIDQDEDSTYYADSVKGRFTISRDNAKNTVYLQMNSLKPEVTAVYYCAADHAWYSLFDYWGQGTQVTVSS,low polyreactivity
7,QVQLVESGGGLVQAGGSLRLSCAASGRTFPRYAMGWYRQAPGKERELVAAISVRAGITYYADSVKGRFTISRDNAKNTVYLQMKSLKPEDTADYYCAKDHWTSSYDEGDYWGQGTQVTVSS,low polyreactivity
8,QVQLVESGGGLVQAGGSLRLSCAASGLIFGGNAMGWYRQAPGKERELVAAITYRTGSTYYADSVKGRFTISRDNAKNTVYLQMNSLKPEDTAVYYCAAAVSLGYPVAFYYWGQGTQVTVSS,low polyreactivity
9,QVQLVESGGGLVQAGGSLRLSCAASGSIFAWYAMGWYRQAPGKERELVAVITRGGSTNYADSVKGRFTISRDNAKNTVYLQMNSLKPEDTAVYYCAAGSYYSWYPFDYWGQGTQVTVSS,low polyreactivity
10,QVQLVESGGGLVQAGGSLRLSCAASGIIFQLNAMGWYRQAPGKERELVAAISSVGSTYYADSVKGRFTISRDNAKNTVYLQMNSLKPEDTAVYYCAAETYSTAHNAYFEIAYYWGQGTQVTVSS,high polyreactivity
11,QVQLVESGGGLVQAGGSLRLSCAASGGTFSNNAMGWYRQAPGKERELVAAISNSGGRTYYADSVKGRFTISRDNAKNTVYLQMNSLKPEDTAVYYCNVRRGYWHPGYGWANYDYWGQGTQVTVSS,high polyreactivity
12,QVQLVESGGGLVQAGRSLRLSCAASGRIFTPNAMGWYRQAPGKERELVAAISSSGRTSYADSLKGRFTNTSDNAKITVYLQMNSLKPEDTAVYYCNATWRWTRRGYDYWGQGTQVTVSS,low polyreactivity
13,QVQLVESGGGLVQAGGSLRLSCAASGRIFFNYAMGWYSQAPGKERELVAAIRGGGSTYADSVKGRFTISRDNAKNTVYLQLNSLKPADTAVYYCAARYSGSPYHTRRYYYWGQGTQVTVSS,high polyreactivity
14,QVQLVESGGGLVQAGGSLRLSCAASGLIFYHNARGWYRQAPGKERELVAAITASGGSTYYADSVKGRFTISRDNAKNTVYFQMNSLKPEDTAVYYCAADGPLDSDLDYWGQGTQVTVSS,low polyreactivity
15,QVQLVESGGCLVQAGGSLRLSCAASGSIMYSYAMAWYRQAPGQERELVAAITGDGASTNYADYVKGRFTISRDNAKNTVYLQMNSLKPEDTAVYYCNAGRESDDVYEGSQRIGQFDYWGQGTQVTVSS,low polyreactivity
